{"source": "patent US20240400689A1", "about": "(ANTENGENE BIOLOGICS, published 2024)", "binders": {"B1": {"name": "27-E7-D8-C7 (human IgG1 chimeric antibody) (antibody, V domains shown)", "VH": "EVQLQESGPELVRPGVSVKISCKGSGYTFTDYAMHWVKQSHAKSLEWIGVINTYSDNTNYNRKFKGKATMTVDKSSSTAYMELARLTSEDSAIYYCARGLLLRSQLGVYFDYWGQGTTLTVSS", "VL": "QIVLSQSPAILSASPGEKVTMTCRASSSVSYMHWYQQKPGSSPKPWIYATSNLASGVPARFSGSGSGTSYSLTISRVEAEDAATYYCQQWSSNPWTFGGGTKLEIK", "notes": "human IgG1 chimeric antibody of the mouse clone"}, "B2": {"name": "23-F10-G4-F11 (human IgG1 chimeric antibody) (antibody, V domains shown)", "VH": "EVQLQESGPDLVRPGALVKLSCKSSGFNIKDYPIHWVRQRPEQGLEWIGWFDPDNGNVIYDPRFQGKASITADTSSNTAYLQLNSLTSEDTAVYYCSSPYGAMDYWGQGTSVTVSS", "VL": "QIVLTQSPEIMSASPGEKVTMTCSASSSVSYIHWYQQKSGTSPKRWIYDTSKLASGVPARFSGSGSGTSYSLTIRSMEAEDAATYYCQQGSSNPRTFGGGTKLEIK", "notes": "as for B1"}, "B3": {"name": "9-G2-H6-E4 (human IgG1 chimeric antibody) (antibody, V domains shown)", "VH": "EVQLQQSGPDLVKPGASVKISCKASGYSFTGYFMNWVKQRHGKSLEWIGYINPNNGDTIYNQKFKGKATLTVDKSSSTAHMELLSLTSEDSAVYYCGRGGLPFGALDYWGQGTSVTVSS", "VL": "DIVMSQSPSSLAVSVGEKVNMSCKSSQSLLYSRNQKNYLAWNQQKPGQSPKLLIYWASARESGVPDRFTGSGSGTDFTLTISSVKAEDLAAYYCQQYHSYPYTFGGGTKLELK", "notes": "as for B1"}, "B4": {"name": "3-G7-D8-D3 (human IgG1 chimeric antibody) (antibody, V domains shown)", "VH": "QVQLQQSGAELARPGTSVKLSCKASGYTFTTYWIQWVKQRPGQGLEWIGAIYPGDGDTRYTQKFKGKATLTADKSSSTAYMQLSTLASEDSAVYYCARPYDGYYIDYPMDSWGQGTSVTVSS", "VL": "QIVLTQSPAIMSASPGEKVTMTCSASSRINYMHWYQQKPGTSPIIWIYDTSKLASGVPARFSGSGSGTSYSLTISSMEAEDAATYYCHQRSSYPFTFGSGTKLEIK", "notes": "as for B1"}, "B5": {"name": "20-F8-B5-G2 (human IgG1 chimeric antibody) (antibody, V domains shown)", "VH": "EVQLQESGPSLVKPSQTLSLTCSVTGDSITSAYWNWIRKFPGNKLEYMGYISNSGSTYYNPSLKSRISITRDTSKNQYYLQLNSVTTEDTGTYYCVRGERYYGYGAYWGQGTLVTVSA", "VL": "DIVMTQATPSVPVTPGESISISCRSSKSLLHSNGNTYLYWFLQRPGQSPQLLIYRMSNLASGVPDRFSGSGSGTAFTLRISRVEAEDVGVYYCMQHLEYPFTFGAGTKLELK", "notes": "as for B1"}, "B6": {"name": "11-G10-B4-B11 (human IgG1 chimeric antibody) (antibody, V domains shown)", "VH": "DVQLQESGPGLVKPSQSLSLTCTVTGYSITSDYAWNWIRQFPGNKLEWMGYISYSGSTSYNPSLKSRISITRDTSKNQFFLQLNSVTTEDTATYYCARGGPWFAYWGQGTLVTVSA", "VL": "DVVMTQTPLSLPVSLGDQASISCRSSQSLVHSNGNTYLHWYLQKPGQSPKLLIYKVSNRFSGVPDRFSGSGSGTDFTLKISRVEAEDLGVYFCSQSTHVPFTFGSGTKLEIK", "notes": "as for B1"}, "B7": {"name": "21-B3-B1-H5 (human IgG1 chimeric antibody) (antibody, V domains shown)", "VH": "QIQLVQSGPELKKPGETVKISCKASGYIFRNYGMNWVKQAPGKGLKWMGWINSYTGKPTYVDDFKGRFAFSLETSASTAYLQINNLKNEDMATYFCARDDGYWYTMDYWGQGTSVTVSS", "VL": "B6 VL with N35H, F101W, S105G", "notes": "as for B1"}, "B8": {"name": "14-E7-G9-D4 (human IgG1 chimeric antibody) (antibody, V domains shown)", "VH": "EVQLQQSGPELVKPGASVKMSCKASGYTFTNYIMHWVKQKPGQGLEWIGYINPYNDGIKYNEKFKGKATLTSDKSSSTAYMELSSLTSEDSAVYYCTRWGNYVFYYTMDYWGQGTSVTVSS", "VL": "QIVLSQSPAILSASPGEKVTMTCRASSSVSYMHWYQQKPGSSPKPWIYATSNLASGVPARFSGSGSGTSYSLTISRMEAEDAATYYCQQWSGNPPLTFGAGTKLELK", "notes": "as for B1"}, "B9": {"name": "9-E8-F9-C10 (human IgG1 chimeric antibody) (antibody, V domains shown)", "VH": "EVQLQQSGAELVRPGTSVKISCKASGYAFSDYWLSWVKQRPGHGLEWIGDICPGSGNIYYNERFKDKVILTADRSSSTAYLQFSSLTSEDSVVYFCTRLITRVIDYWGQGTSVTVST", "VL": "ENVLTQSPAIMSASPGEKVTMTCSASSSVNYMHWYQQKSSTSPKLWIYDTSKLSSGVPGRFSGSGSGNSYSLTISSMEAEDVATYYCFQGSGYPLTFGAGTKLELK"}, "B10": {"name": "5-D1-G6-D9 (human IgG1 chimeric antibody) (antibody, V domains shown)", "VH": "EVQLQESGAELVKPGASVKLSCKTSGLTFSTNYISWLKQKPGQSLEWIAWIYGGNGGTSYNQRFTGKAQLTVDTSSSTAYMQFSSLTTEDSAIYYCTSHDYYGGPMDYWGQGTSVTVSS", "VL": "DIQMTQTTSSLSASLGDRVTISCRASQDISNYLNWYQQKPDGTVKLLIYFTSRLHSGVPSRFSASGSGTDYSLTISNLEQEDIATYFCQQTNTLPWTFGGGTKLEIK"}, "B11": {"name": "2-A7-B10-A3 (human IgG1 chimeric antibody) (antibody, V domains shown)", "VH": "QVQLQQSGAELVRPGVSVKISCKGSGYTFTDYAMHWVKQSHAKSLEWIGVINTNYVNTSYNQKFKGKATMTVDKSSSTAFMELARLTSEDSAIYYCARGGKYGNYVFFFAYWGQGTLVTVSA", "VL": "B10 VL with F50Y, A64G, T91G, W96Y"}, "B12": {"name": "11-G10-B4-B11 (antibody, V domains shown)", "VH": "B6 VH", "VL": "B6 VL", "notes": "mouse monoclonal antibody (hybridoma)"}, "B13": {"name": "16-G3-D10-C10 (antibody, V domains shown)", "VH": "B7 VH with I28T, A40G, G44D, S53P, K57E, V61I, D62G, S77N, T78S, K87N", "VL": "B6 VL with L9P, S22P, N35I, F101W, S105G", "notes": "as for B12"}, "B14": {"name": "21-B3-B1-H5 (antibody, V domains shown)", "VH": "B7 VH", "VL": "B6 VL with N35H, F101W, S105G", "notes": "as for B12"}}, "note": "Numbering of substitutions follows the chain as printed.", "data": [{"target": "T1, human CD276 protein (human, UniProt Q5ZPR3 29-534)", "T1 construct": "whole, on cells; for SKOV3 and the other cancer lines the protein is the cells' own; also called B7-H3; B7H3", "T1 sequence (looked up)": "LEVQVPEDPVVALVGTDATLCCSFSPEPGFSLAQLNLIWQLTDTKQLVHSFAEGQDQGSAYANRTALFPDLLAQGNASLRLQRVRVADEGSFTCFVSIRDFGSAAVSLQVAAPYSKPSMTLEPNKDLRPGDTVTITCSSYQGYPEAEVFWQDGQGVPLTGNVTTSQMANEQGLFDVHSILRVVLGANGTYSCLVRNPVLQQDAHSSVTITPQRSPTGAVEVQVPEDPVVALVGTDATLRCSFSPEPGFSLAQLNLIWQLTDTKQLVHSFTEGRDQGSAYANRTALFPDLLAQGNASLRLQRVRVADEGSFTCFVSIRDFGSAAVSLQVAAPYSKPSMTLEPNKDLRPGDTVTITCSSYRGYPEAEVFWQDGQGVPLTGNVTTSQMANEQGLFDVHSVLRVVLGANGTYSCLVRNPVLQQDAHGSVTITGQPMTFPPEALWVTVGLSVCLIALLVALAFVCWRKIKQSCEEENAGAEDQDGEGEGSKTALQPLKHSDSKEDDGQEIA", "assay": "FACS on SKOV3 cells", "text": "Sequences of 31 mouse antibodies from Table 5 were selected to generate and produce human IgG1 chimeric antibodies. The binding affinity of these antibodies and bench mark antibody, Enoblituzumab (see U.S. Pat. No. 8,802,091, MGA271, specifically with a construct designated as hBRCA84D-2) and MGC018 (an antibody-drug-conjugate, in which the mAb MGA017 (human IgG1) is conjugated via a cleavable linker to the prodrug seco-DUocarmycin hydroxyBenzamide Azaindole (DUBA), an alkylating agent that can damage DNA in both dividing and non-dividing cells, thereby causing cell death) with human patient derived ovarian cancer cell line, SKOV3, was determined by FACS analysis.\n1. Digested cells using Trypsin (1×); Centrifuged the harvested cells at 300 g for 3 min and discarding the supernatant. […] 2. Washed the cells 2 times with FACS buffer by centrifuging at 300 g for 3 min and discarding the supernatant. [0445] 3. […] Kept the cells in dark for FACS analysis.", "units": {"EC50": "mg/L"}, "values": [{"binder": "B1", "EC50": 0.542, "MFI (Max)": 4750}, {"binder": "B2", "EC50": 4.42, "MFI (Max)": 6720}, {"binder": "B3", "EC50": 3.66, "MFI (Max)": 292}, {"binder": "B4", "EC50": 0.509, "MFI (Max)": 1210}, {"binder": "B5", "EC50": 1.11, "MFI (Max)": 3010}, {"binder": "B6", "EC50": 0.536, "MFI (Max)": 3750}, {"binder": "B7", "EC50": 0.723, "MFI (Max)": 2720}, {"binder": "B8", "EC50": 1.62, "MFI (Max)": 2730}]}, {"target": "T1, human CD276 protein", "assay": "cell-based or functional assay", "units": {"EC50 of antibody induced ADCC effect on SKOV3": "mg/L"}, "values": [{"binder": "B9", "EC50 of antibody induced ADCC effect on SKOV3": 4.05}, {"binder": "B10", "EC50 of antibody induced ADCC effect on SKOV3": 1.55}, {"binder": "B11", "EC50 of antibody induced ADCC effect on SKOV3": 4.21}, {"binder": "B1", "EC50 of antibody induced ADCC effect on SKOV3": 0.103}, {"binder": "B2", "EC50 of antibody induced ADCC effect on SKOV3": 0.137}, {"binder": "B3", "EC50 of antibody induced ADCC effect on SKOV3": 13.6}, {"binder": "B4", "EC50 of antibody induced ADCC effect on SKOV3": 0.00898}, {"binder": "B5", "EC50 of antibody induced ADCC effect on SKOV3": 3.01}, {"binder": "B6", "EC50 of antibody induced ADCC effect on SKOV3": 17.3}, {"binder": "B7", "EC50 of antibody induced ADCC effect on SKOV3": 0.648}, {"binder": "B8", "EC50 of antibody induced ADCC effect on SKOV3": 0.252}]}, {"target": "T1, human CD276 protein", "assay": "FACS on CHO-S-hCD276 cells", "how_it_was_run": "(§1)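 Cross-reactivity checked by FACS on CHO-S cells stably over-expressing the respective CD276, with parental CHO-S as control. Cells incubated with subclone antibodies, bound primary detected with fluorescent dye-conjugated secondary antibody; read-out is median fluorescence intensity.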", "values": [{"binder": "B12", "FACS MFI": 32800}, {"binder": "B13", "FACS MFI": 23200}, {"binder": "B14", "FACS MFI": 71500}]}, {"target": "T2, mouse CD276 protein (mouse, UniProt Q8VE98 29-316)", "T2 construct": "whole, on cells; also called mCD276; CHO-S-mCD276", "T2 sequence (looked up)": "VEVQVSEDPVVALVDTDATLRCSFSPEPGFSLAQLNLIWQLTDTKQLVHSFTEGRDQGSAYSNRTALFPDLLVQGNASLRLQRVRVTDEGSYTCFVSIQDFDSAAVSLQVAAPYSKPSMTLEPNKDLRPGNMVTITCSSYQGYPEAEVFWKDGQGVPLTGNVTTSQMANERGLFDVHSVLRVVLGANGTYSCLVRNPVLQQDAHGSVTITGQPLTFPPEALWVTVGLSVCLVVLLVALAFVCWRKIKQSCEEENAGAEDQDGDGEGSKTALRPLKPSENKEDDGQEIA", "assay": "FACS on CHO-S-mCD276 cells", "how_it_was_run": "as §1", "values": [{"binder": "B12", "FACS MFI": 2800}, {"binder": "B13", "FACS MFI": 1320}, {"binder": "B14", "FACS MFI": 1340}]}, {"target": "T3, Macaca fascicularis CD276 (Macaca fascicularis)", "T3 construct": "whole, on cells; also called cynomolgus monkey CD276; cynoCD276", "assay": "FACS on CHO-S-cynoCD276 cells", "how_it_was_run": "as §1", "values": [{"binder": "B12", "FACS MFI": 26400}, {"binder": "B13", "FACS MFI": 6190}, {"binder": "B14", "FACS MFI": 20200}]}]}
